Molecular target: T1, HER2 on SK-BR-3 human breast cancer cells (human, UniProt P04626 23-1255)
T1 construct: whole, on cells; also called SK-BR-3 cells; whole cell (SK-BR-3)
Assay: flow cytometry on SK-BR-3 cells, human IgG1, anti-human IgG-FITC detection
Protocol: Following washes in PBS containing 1% BSA, secondary antibody anti-human IgG-FITC (Sigma) was added for 30 min on ice. Fluorescence intensity of the live cell population was recorded using FACSCalibur (BD Biosciences) and analyzed using FlowJo 7.6.5 software (Tree Star).

B1: 4D5 as human IgG1, VH 30D (30D/WT) (antibody, V domains shown)
VH: QVQLVESGGGLVQPGGSLRLSCAASGFNIDDTYIHWVRQAPGKGLEWVARIYPTNGYTRYADSVKGRFTISADTSKNTAYLQMNSLRAEDTAVYYCSRWGGDGFYAMDVWGQGTLVTVSS
VL: not shown
EC50: 0.827 µg/mL

B2: 4D5 as human IgG1, VH 30D and VL 52D (30D/52D) (antibody, V domains shown)
VH: B1 VH
VL: QIQMTQSPSSLSASVGDRVTITCRASQDVNTAVAWYQQKPGKAPKLLIYSADFLESGVPSRFSGSRSGTDFTLTISSLQPEDFATYYCQQHYTTPPTFGQGTKVEIK
EC50: 0.978 µg/mL
